Results as given in PMC11880808.
pKd: −log10 of the molar value.

Columns and labels:
[1] = molecular target: cynomolgus monkey IL-2 receptor beta and gamma (IL-2Rβγ) complex (cynomolgus monkey) (UniProt Q38J85); assay: BLI; Octet; who was immobilised, temperature and buffer are not told
[2] = molecular target: cynomolgus monkey IL-2 receptor alpha (IL-2Rα) (cynomolgus monkey); assay: as above

pKd [1]: 8.89
pKd [2]: 7.70
Substance: recombinant human IL-2 (from UniProt P60568 21-153) (ligand)
